From PMC12077208 (2025) come the findings set out here.

The assay addresses nuclear translocation factor 2-like (NTF2L) domain of human G3BP1 (human, UniProt Q13283-1 1-138). Kind of assay: ITC. (Isothermal titration calorimetry measures the heat released or taken up as one component is titrated into another.)

nuclear translocation factor 2-like (NTF2L) domain of human G3BP1, sequence (Q13283 other isoform, or with tags, fused parts or gaps): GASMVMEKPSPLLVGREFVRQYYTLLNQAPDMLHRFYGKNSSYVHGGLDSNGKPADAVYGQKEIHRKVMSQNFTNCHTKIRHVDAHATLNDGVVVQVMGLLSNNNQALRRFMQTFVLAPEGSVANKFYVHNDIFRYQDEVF

For the molecule ITFGDFNDGEIESLSSELLTFGDFLP [CHIKV-26 peptide (residues Ile473 to Pro498 of CHIKV nsP3, without the α2 region)], binding was put at a Kd of 7.8 µM. This counts as single-digit micromolar.

B1: CHIKV nsP3 peptide CHIKV-43 (residues Glu469-Thr511) (peptide)
chain: GPLGSETFPITFGDFNDGEIESLSSELLTFGDFLPGEVDDLTDSDWSTHHHHHH
Turning to B1, the Kd (usually the constant that tells how readily two partners part at equilibrium) was found to be 0.078 µM.
